Assay results reported in paper PMC8910226.

Biological target: F-actin (phalloidin-stabilized) (UniProt P68139)
Test: co-sedimentation; S1 fixed at 1.5 μM, phalloidin-stabilized F-actin 0-4 μM; rigor conditions (no nucleotide); 100 mM NaCl, 200 mM sodium phosphate pH 7, 5 mM MgCl2, 4 mM DTT; 15 min at 4 °C, 70,000 RPM 60 min 4 °C; SDS-PAGE densitometry of pellet, hyperbolic fit; Kd = F-actin concentration at half Bmax; N = 3

Kd [nM]	Substance
1100	R369H myosin subfragment-1 (S1) motor domain, Drosophila indirect flight muscle myosin (domain or fragment)
1260	control myosin subfragment-1 (S1) motor domain, Drosophila indirect flight muscle myosin (domain or fragment)
